Fold decline in binding ability to FGFR1 against FGF5 data for 1 substance are collected here from PMC10236585.

For the test, the target named is mu-FGF5-Flag (FGF5 p. L191S) (rabbit). Briefly: co-IP; HEK293T cells co-transfected with FGFR1 and FGF5-Flag or mu-FGF5-Flag; lysed 48 h later (50 mM Tris pH 7.4, 150 mM NaCl, 0.2 mM EDTA, 2 mM EGTA, 0.5% Igepal CA-630, 10% glycerol); anti-Flag IP resin overnight at 4 °C; immunoblot with anti-FGFR1 and anti-Flag; densitometry of FGFR1 in the IP normalised to FGF5 or mu-FGF5.

In the case of “FGFR1 (fibroblast growth factor receptor 1)”, the fold decline in binding ability to FGFR1 against FGF5 amounted to 0.49 fold.
